Results taken from doi:10.1101/2022.08.12.503734.

Target: GST-Cln3-10A (S. cerevisiae (budding yeast)) (UniProt P13365)
Assay: pull-down

Sequence of Cdk1 (P00546 whole entry): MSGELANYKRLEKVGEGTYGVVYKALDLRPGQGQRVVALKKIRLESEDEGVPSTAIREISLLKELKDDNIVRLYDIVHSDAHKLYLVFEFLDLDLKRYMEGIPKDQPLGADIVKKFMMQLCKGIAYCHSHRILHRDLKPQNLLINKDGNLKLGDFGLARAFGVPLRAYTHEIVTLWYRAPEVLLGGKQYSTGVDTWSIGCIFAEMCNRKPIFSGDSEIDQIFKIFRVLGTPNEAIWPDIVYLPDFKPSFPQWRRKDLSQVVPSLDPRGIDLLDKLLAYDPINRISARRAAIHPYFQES
Sequence of UniProt P13365 (P13365 whole entry): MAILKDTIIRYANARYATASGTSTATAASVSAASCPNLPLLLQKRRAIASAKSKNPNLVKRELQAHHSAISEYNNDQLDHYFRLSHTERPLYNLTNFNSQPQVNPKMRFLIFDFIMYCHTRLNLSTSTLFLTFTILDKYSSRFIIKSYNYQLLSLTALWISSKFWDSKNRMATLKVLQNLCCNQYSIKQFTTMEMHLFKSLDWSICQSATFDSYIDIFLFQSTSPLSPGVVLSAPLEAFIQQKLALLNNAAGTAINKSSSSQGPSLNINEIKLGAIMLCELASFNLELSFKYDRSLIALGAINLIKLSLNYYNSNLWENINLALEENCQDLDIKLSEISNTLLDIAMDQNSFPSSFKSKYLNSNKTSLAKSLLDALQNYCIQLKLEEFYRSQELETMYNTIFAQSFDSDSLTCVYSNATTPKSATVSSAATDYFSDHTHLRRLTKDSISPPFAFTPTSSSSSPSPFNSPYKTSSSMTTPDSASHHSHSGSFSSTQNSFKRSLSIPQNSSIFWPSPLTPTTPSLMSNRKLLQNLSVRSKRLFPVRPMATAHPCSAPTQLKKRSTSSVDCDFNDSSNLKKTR

- fold lower amount of associated Cdk1 than with GST-Clb2: 6 fold
Substance: Cdk1 (from UniProt P00546 1-298) (enzyme)
